Assays:
[1] = molecular target: T1, coAHASL2 (Caldicellulosiruptor owensensis, UniProt E4Q4G3); experiment: colorimetric acetoin assay; activity with […] FAD; assay type: biochemical; conditions: pyruvate, ThDP, Mg2+; 65 °C, Tris pH 6.5
T1 construct: gene Calow_0543; catalytic subunit alone, EC 2.2.1.6
T1 sequence (E4Q4G3 1-552): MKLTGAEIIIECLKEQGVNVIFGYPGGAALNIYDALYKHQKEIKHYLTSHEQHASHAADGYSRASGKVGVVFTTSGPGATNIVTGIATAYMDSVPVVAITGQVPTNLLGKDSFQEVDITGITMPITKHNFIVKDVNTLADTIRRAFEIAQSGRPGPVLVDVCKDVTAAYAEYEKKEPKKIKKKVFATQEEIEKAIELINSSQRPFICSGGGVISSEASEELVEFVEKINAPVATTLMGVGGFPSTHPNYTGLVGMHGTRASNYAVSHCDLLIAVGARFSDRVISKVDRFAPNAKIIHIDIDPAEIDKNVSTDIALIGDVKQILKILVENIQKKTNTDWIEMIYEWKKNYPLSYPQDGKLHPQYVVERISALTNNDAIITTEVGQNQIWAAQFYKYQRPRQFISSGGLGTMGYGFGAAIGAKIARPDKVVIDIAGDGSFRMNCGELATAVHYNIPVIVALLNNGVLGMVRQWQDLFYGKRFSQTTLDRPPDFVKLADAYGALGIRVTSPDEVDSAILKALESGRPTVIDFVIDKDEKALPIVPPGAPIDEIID

[2] = molecular target: T2, coAHASL1 (Caldicellulosiruptor owensensis, UniProt E4Q3I4); experiment: colorimetric acetoin assay; activity with […] FAD; assay type: biochemical; conditions: pyruvate, ThDP, Mg2+; 65 °C, Tris pH 6.5
T2 construct: gene Calow_0356; catalytic subunit alone, EC 2.2.1.6
T2 sequence (E4Q3I4 1-536): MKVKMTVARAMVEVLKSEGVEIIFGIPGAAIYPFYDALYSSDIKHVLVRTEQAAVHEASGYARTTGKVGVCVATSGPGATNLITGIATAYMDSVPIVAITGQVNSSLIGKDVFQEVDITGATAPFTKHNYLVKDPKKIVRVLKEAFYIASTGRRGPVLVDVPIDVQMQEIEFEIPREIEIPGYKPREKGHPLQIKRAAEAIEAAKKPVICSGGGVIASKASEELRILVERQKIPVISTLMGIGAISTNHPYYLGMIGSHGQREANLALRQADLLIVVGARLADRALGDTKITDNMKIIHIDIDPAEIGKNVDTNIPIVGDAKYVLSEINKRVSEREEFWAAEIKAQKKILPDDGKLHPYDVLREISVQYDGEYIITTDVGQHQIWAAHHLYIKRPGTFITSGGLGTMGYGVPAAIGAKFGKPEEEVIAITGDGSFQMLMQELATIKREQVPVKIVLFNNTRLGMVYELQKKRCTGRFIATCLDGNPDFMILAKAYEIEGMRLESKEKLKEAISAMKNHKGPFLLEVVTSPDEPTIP

[3] = substrate: CC(=O)C(=O)O; experiment: purified protein; assay type: biochemical, Caldicellulosiruptor owensensis; conditions: ThDP, FAD, Mg2+, catalytic subunit alone
[4] = 70 °C, pH 6.5 (citrate-phosphate)

Molecule: Cc1cc2nc3c(=O)[nH]c(=O)nc-3n(C[C@H](O)[C@H](O)[C@H](O)COP(=O)(O)OP(=O)(O)OC[C@H]3O[C@@H](n4cnc5c(N)ncnc54)[C@H](O)[C@@H]3O)c2cc1C [FAD]
- activity enhancement [1]: concentration-dependent enhancements of both coAHASL1 and coAHASL2 were observed upon the addition of FAD
- activity enhancement [2]: concentration-dependent enhancements of both coAHASL1 and coAHASL2 were observed upon the addition of FAD

B1: coAHASL1 (Caldicellulosiruptor owensensis OL) (protein)
chain: T2 sequence (E4Q3I4 1-536)
notes: catalytic subunit alone, EC 2.2.1.6
- Km ([3]; 65 °C, pH 6.5 (Tris)): 71.83 ± 4.63 mM
- Vmax ([3]; 65 °C, pH 6.5 (Tris)): 3.7 µmol/min/mg

B2: coAHASL2 (Caldicellulosiruptor owensensis OL) (protein)
chain: T1 sequence (E4Q4G3 1-552)
notes: as for B1
- Km [3, 4]: 53.78 ± 2.68 mM
- Vmax [3, 4]: 0.7 µmol/min/mg

Source: article PMC5489476, “A thermophilic cell-free cascade enzymatic reaction for acetoin synthesis from pyruvate” (Scientific Reports, 2017)
